{"source": "patent US20240011005A1", "about": "(HUIDAGENE THERAPEUTICS, published 2024)", "test_in_all_cases": "cell_activity", "key": {"[1]": {"system": "T1, OsCas12f1-D52R (Oscillibacter sp.)", "T1 sequence": "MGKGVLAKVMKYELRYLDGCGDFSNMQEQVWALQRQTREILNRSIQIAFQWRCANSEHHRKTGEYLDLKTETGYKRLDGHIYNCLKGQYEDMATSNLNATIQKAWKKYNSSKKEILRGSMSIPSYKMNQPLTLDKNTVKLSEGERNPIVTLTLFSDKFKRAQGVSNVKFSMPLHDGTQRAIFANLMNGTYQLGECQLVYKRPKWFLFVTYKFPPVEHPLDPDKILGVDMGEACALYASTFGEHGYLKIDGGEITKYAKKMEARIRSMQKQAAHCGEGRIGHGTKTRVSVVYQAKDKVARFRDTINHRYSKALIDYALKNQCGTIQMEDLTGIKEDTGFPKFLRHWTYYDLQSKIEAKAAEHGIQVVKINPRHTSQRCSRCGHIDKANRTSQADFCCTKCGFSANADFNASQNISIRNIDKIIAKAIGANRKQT", "details": "PAM TTTC; 1.31-fold in text"}, "[2]": {"system": "T2, OsCas12f1-S119R S119R (Oscillibacter sp.)", "T2 sequence": "T1 sequence with R52D, S119R", "details": "PAM TTTC"}, "[3]": {"system": "T3, OsCas12f1-S141R S141R (Oscillibacter sp.)", "T3 sequence": "T1 sequence with R52D, S141R", "details": "PAM TTTC"}, "[4]": {"system": "T4, OsCas12f1 (ME-B.3) (Oscillibacter sp.)", "T4 sequence": "T1 sequence with R52D", "details": "PAM TTTC, HEK293T"}, "[5]": {"system": "T5, OsCas12f1-A54R A54R (Oscillibacter sp.)", "T5 sequence": "T1 sequence with R52D, A54R", "details": "PAM TTTC"}, "[6]": {"system": "T6, OsCas12f1-T132R T132R (Oscillibacter sp.)", "T6 sequence": "T1 sequence with R52D, T132R", "details": "PAM TTTC"}, "[7]": {"target": "T7, Un1Cas12f1_ge4.1 (Uncultured bacterium) (UniProt A0A482D308)", "T7 sequence": "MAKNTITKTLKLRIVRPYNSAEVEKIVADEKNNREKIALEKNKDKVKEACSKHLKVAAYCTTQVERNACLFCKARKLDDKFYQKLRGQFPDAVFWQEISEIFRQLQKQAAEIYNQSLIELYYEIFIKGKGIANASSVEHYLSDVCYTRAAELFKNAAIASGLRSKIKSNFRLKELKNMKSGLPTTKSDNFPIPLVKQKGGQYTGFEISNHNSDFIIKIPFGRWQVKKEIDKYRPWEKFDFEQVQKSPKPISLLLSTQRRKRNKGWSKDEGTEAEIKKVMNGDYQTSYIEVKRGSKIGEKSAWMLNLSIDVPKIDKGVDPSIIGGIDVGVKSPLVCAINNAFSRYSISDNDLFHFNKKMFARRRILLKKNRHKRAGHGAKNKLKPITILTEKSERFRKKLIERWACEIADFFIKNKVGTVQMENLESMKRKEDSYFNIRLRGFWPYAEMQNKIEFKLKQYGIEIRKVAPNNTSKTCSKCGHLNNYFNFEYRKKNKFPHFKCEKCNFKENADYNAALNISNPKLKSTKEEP", "details": "PAM TTTG per Table 1; 36.1 in Rh screen"}}, "note": "Positions count from the first letter of the chain named.", "data": [{"sequence": "AGGGACGACUUCCCGUCCCAAAAUCGAGACAGUAGCCGUAAAACUUUGAGUUUCAGAGUGGGCGACACACUCGAAAAGGUUAAGAUAUGCACAUAGUAAUCCGUGCAUGAGCCGCGAAAGCGGCUUGAAGGCCAUUACAGUAGGAGCAUACUUUUAUUUUUUU / TTTCCCATTACAGTAGGAGCATACGGG / CCCGTATGCTCCTACTGTAATGGGAAA", "values": [{"measurement": "activity", "setting": "[1]", "result": 52.8, "unit": "% GFP+"}, {"measurement": "activity", "setting": "[2]", "result": 46.3, "unit": "% GFP+"}, {"measurement": "activity", "setting": "[3]", "result": 46.6, "unit": "% GFP+"}, {"measurement": "activity", "setting": "[4]", "result": 38.7, "unit": "% GFP+"}, {"measurement": "activity", "setting": "[5]", "result": 45.5, "unit": "% GFP+"}, {"measurement": "activity", "setting": "[6]", "result": 48.4, "unit": "% GFP+"}]}, {"sequence": "ACCGCUUCACUUAGAGUGAAGGUGGGCUGCUUGCAUCAGCCUAAUGUCGAGAAGUGCUUUCUUCGGAAAGUAACCCUCGAAACAAAGAAAGGAAUGCAACCCAUUACAGUAGGAGCAUACUUUUAUUUUUUU / TTTGCCATTACAGTAGGAGCATAC / GTATGCTCCTACTGTAATGGCAAA [Un1Cas12f1_ge4.1 sgRNA ; reporter insertion, TTTG PAM]", "values": [{"measurement": "activity", "setting": "[7]", "result": 36.5, "unit": "% GFP+"}]}]}
